This assay has as its target actin (Oryctolagus cuniculus, UniProt P68135).

Our source for the Kd values is paper PMC4324353 (2014).

B1: Spire Sc3d WH2 c-Linker 3-WH2 d (second actin at Sc) (protein)
chain: KKDAHAMILEFIRSRPPLKKASDRQLGPPRMCEPSPREQLMESIRKGKELKQITPPEA
As to B1, the Kd came out at 10 nM.

B2: Spire Sc3d WH2 c-Linker 3-WH2 d (second actin at Sd) (protein)
chain: B1 chain
In turn, B2 showed a Kd of 30 nM.

The term Kd denotes a measure of binding affinity in units of concentration. Low values mean higher affinity, high ones lower affinity.
